Patent US20020151497

How the values were obtained:
[1] = target: T1, CD19, endogenous, immunoprecipitated from WEHI-231 cells (UniProt P25918)
T1 sequence: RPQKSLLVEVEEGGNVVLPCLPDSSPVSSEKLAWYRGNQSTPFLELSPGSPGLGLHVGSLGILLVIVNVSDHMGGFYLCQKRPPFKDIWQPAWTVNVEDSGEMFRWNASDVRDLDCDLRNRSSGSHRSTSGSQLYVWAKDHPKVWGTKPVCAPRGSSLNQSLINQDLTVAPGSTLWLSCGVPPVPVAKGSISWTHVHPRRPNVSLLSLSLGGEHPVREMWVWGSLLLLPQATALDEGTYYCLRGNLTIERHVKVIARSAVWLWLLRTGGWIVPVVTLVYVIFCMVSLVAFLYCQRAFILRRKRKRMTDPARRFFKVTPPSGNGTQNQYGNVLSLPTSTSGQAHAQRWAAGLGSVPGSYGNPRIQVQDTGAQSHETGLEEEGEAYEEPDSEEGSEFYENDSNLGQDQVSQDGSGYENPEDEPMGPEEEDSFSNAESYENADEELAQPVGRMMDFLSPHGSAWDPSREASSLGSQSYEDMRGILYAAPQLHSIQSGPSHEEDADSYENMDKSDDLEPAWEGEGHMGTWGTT

[2] = target: Syk, endogenous, from WEHI-231 cells (UniProt P48025)
[3] = target: Lyn-kinase, endogenous, immunoprecipitated from WEHI-231 cells (UniProt P25911)
Chain of Lyn-kinase, endogenous, immunoprecipitated from WEHI-231 cells (P25911 whole entry, looked up): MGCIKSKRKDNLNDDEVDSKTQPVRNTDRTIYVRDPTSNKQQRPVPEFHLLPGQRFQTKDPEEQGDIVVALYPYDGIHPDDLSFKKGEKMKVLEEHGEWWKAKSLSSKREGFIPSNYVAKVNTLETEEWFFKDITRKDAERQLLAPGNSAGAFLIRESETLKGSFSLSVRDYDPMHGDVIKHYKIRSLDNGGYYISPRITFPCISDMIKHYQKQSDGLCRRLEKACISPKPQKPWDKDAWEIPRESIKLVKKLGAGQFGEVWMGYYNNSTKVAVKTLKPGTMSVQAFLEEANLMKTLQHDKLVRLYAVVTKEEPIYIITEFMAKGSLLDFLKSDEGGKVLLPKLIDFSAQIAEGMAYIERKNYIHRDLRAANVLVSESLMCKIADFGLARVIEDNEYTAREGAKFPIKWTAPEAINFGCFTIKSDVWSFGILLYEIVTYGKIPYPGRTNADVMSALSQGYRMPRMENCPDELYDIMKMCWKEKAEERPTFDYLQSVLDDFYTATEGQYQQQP

Chain of Syk, endogenous, from WEHI-231 cells (P48025 whole entry, looked up): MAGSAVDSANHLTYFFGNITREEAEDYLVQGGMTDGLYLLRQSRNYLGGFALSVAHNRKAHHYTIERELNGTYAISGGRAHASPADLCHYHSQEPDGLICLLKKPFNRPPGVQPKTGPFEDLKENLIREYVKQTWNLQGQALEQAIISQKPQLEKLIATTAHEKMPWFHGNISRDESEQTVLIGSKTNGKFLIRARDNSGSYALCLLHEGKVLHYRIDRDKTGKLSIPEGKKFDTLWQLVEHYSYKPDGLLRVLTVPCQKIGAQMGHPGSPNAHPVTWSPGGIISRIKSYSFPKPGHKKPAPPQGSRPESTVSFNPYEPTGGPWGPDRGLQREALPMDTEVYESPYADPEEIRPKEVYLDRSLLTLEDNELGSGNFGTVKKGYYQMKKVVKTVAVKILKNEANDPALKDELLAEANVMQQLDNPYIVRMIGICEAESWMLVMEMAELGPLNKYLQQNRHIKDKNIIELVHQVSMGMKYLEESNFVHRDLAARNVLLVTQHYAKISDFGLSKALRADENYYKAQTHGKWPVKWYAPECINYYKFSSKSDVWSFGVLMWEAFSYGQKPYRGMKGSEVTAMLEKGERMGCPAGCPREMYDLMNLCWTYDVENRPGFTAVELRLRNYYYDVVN

exogenous Lyn (5 units added to the kinase assay)
phosphorylation level of immunoprecipitated CD19 (anti-phosphotyrosine Western blot) with exogenous Lyn and 0, 10, 50 and 100 µM K055H302 [1]: Lyn, CD19 and Syk all showed dose-dependent decreased phosphorylation in the presence of the compound of the invention
phosphorylation level of immunoprecipitated Syk (anti-phosphotyrosine Western blot) with exogenous Lyn and 0, 10, 50 and 100 µM K055H302 [2]: Lyn, CD19 and Syk all showed dose-dependent decreased phosphorylation in the presence of the compound of the invention
phosphorylation level of immunoprecipitated Lyn (anti-phosphotyrosine Western blot) with exogenous Lyn and 0, 10, 50 and 100 µM K055H302 [3]: Lyn, CD19 and Syk all showed dose-dependent decreased phosphorylation in the presence of the compound of the invention
